From publication doi:10.1101/2024.08.29.610253 (2024)
Residue numbers refer to the chain shown, from its start. Read-outs that look alike come from different tables or passages of the source.

T1: liprin-α2_CC2N E380R (human, UniProt O75334 300-404, E380R)
T1 sequence: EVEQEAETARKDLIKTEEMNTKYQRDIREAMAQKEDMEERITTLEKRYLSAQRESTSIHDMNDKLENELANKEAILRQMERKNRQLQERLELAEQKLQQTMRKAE

T2: liprin-α2_CC2N A350S (human, UniProt O75334 300-404, A350S)
T2 sequence: T1 sequence with A51S, R81E

T3: liprin-α2_CC2 (human, UniProt O75334 259-542)
T3 chain: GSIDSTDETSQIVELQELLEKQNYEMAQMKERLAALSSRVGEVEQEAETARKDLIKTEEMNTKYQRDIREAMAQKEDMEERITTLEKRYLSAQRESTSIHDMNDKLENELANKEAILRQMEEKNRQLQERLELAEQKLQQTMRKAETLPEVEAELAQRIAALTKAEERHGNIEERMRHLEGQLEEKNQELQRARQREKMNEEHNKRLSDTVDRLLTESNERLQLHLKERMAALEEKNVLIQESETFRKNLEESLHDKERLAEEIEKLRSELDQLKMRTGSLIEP

B1: liprin-α2_CC2N (domain or fragment)
chain: T1 sequence with R81E
B2: RIM1_C2B (domain or fragment)
chain: GPAQLVGRQTLATPAMGDIQIGMEDKKGQLEVEVIRARSLTQKPGSKSTPAPYVKVYLLENGACIAKKKTRIARKTLDPLYQQSLVFDESPQGKVLQVIVWGDYGRMDHKCFMGVAQILLEELDLSSMVIGWYKLFPPSSLVDPTLAPLTRRASQSSLESSSGPPCIRS

What was measured:
Assay in all cases: ITC
RIM1_C2B L1245Q [1] = target: RIM1_C2B L1245Q
RIM1_C2B R1236E [2] = target: RIM1_C2B R1236E
RIM1_C2B L1245Q [3] = target: RIM1_C2B L1245Q; remark: listed apart in the source
RIM1_C2B K1240E [4] = target: RIM1_C2B K1240E
RIM1_C2B R1236E [5] = target: RIM1_C2B R1236E; remark: listed apart in the source
RIM1_C2B K1240E [6] = target: RIM1_C2B K1240E; remark: listed apart in the source
liprin-α2_CC2N E380R [7] = target: T1, liprin-α2_CC2N E380R
liprin-α2_CC2N A350S = target: T2, liprin-α2_CC2N A350S
liprin-α2_CC2N E380R [8] = target: T1, liprin-α2_CC2N E380R; remark: listed apart in the source
liprin-α2_CC2N E379R [9] = target: liprin-α2_CC2N E379R
liprin-α2_CC2N R383A [10] = target: liprin-α2_CC2N R383A
liprin-α2_CC2N E379R [11] = target: liprin-α2_CC2N E379R; remark: listed apart in the source
liprin-α2_CC2N R383A [12] = target: liprin-α2_CC2N R383A; remark: listed apart in the source
liprin-α2_CC2 = target: T3, liprin-α2_CC2
liprin-α2_CC2N = target: B1

Binder	Kd (RIM1_C2B L1245Q [1]) [µM]	Kd (RIM1_C2B R1236E [2]) [µM]	Kd (RIM1_C2B L1245Q [3]) [µM]	Kd (RIM1_C2B K1240E [4]) [µM]	Kd (RIM1_C2B R1236E [5]) [µM]	Kd (RIM1_C2B K1240E [6]) [µM]	Kd (liprin-α2_CC2N E380R [7]) [µM]	Kd (liprin-α2_CC2N A350S) [µM]	Kd (liprin-α2_CC2N E380R [8]) [µM]	Kd (liprin-α2_CC2N E379R [9]) [µM]	Kd (liprin-α2_CC2N R383A [10]) [µM]	Kd (liprin-α2_CC2N E379R [11]) [µM]	Kd (liprin-α2_CC2N R383A [12]) [µM]	Kd (liprin-α2_CC2) [µM]	Kd (liprin-α2_CC2N) [µM]
B1	> 100	27	> 100	25	27	25	–	–	–	–	–	–	–	–	–
B2	–	–	–	–	–	–	8.2	5.7	8.2	23	24	23	24	5	4
